Among the data in patent US20160303217A1 (published 2016) are Kd values, retold here.

B1: porcine transferrin (ligand)
chain: VAQKTVRWCTISNQEANKCSSFRENMSKAVKNGPLVSCVKKSSYLDCIKAIRDKEADAVTLDAGLVFEAGLAPYNLKPVVAEFYGQKDNPQTHYYAVAVVKKGSNFQWNQLQGKRSCHTGLGRSAGWIIPMGLLYDQLPEPRKPIEKAVASFFSSSCVPCADPVNFPKLCQQCAGKGAEKCACSNHEPYFGYAGAFNCLKEDAGDVAFVKHSTVLENLPDKADRDQYELLCRDNTRRPVDDYENCYLAQVPSHAVVARSVDGQEDSIWELLNQAQEHFGRDKSPDFQLFSSSHGKDLLFKDSANGFLKIPSKMDSSLYLGYQYVTALRNLREEISPDSSKNECKKVRWCAIGHEETQKCDAWSINSGGKIECVSAENTEDCIAKIVKGEADAMSLDGGYIYIAGKCGLVPVLAENYKTEGENCVNTPEKGYLAVAVVKKSSGPDLNWNNLKGKKSCHTAVDRTAGWNIPMGLLYNKINSCKFDQFFGEGCAPGSQRNSSLCALCIGSERAPGRECLANNHERYYGYTGAFRCLVEKGDVAFVKDQVVQQNTDGKNKDDWAKDLKQMDFELLCQNGAREPVDNAENCHLARAPNHAVVARDDKVTCVAEELLKQQAQFGRHVTDCSSSFCMFKSNTKDLLFRDDTQCLARVGKTTYESYLGADYITAVANLRKCSTSKLLEACTFHSAKNPRVETTT

In experiment [1] the target is A. pleuropneumoniae TbpB 26-528 (amino acid 26-528) derived from strain H87, purified recombinant truncated …. Nature of the experiment: SPR. (In general: In SPR one partner is held on a chip, and binding of the other changes the refractive index at the surface.)
Experiment [2] concerns the target T1, A. pleuropneumoniae TbpB 20-528 (amino acid 20-528) derived from strain H49, purified recombinant truncated …. Nature of the experiment: SPR.
The target in experiment [3] is T1, A. pleuropneumoniae TbpB 20-528 (amino …). The experiment can be described thus: ITC. Background: In ITC the heat of successive injections is recorded.
The target of the experiment “porcine transferrin” is B1. Nature of the experiment: BLI. For orientation: Biolayer interferometry detects binding as a change in optical thickness at a sensor tip.

Consider B1, for which the Kd in experiment [1] was determined as 60 nM; in experiment [2], 44 nM; in experiment [3], 55 nM.

B2: H. parasuis TbpB 27-577 (amino acid 27-577) derived from the Nagasaki strain Hp5, purified recombinant truncated protein (protein)
chain: FDLEDVQPNKTTGVSKEEYQDVETDKKVKEQLGELMEPALGYVVKVPVSQSGARRTEISNPEAITDEDLKKIPNHETIKSVAEQNYGWVVDKTADKTMKYVRSGYAIDVDHYGTRDKGYVFYKGINPSKELPQGLVLTYQGEWDFTSDANLDAKRPNSNPEFNGYGPGQRIATTSANAKGRTYTSEFEVDFSAKKLKGKLNSKTANTESLERYSIEAEPKGNRFRGKAIAKDTSDAILGKSSDYLEGGFYGPKAEELAGKFITNDKSLFAVFSAKHNGSNVDTVRIIDASKIDLTHFNSSELTNFGDASVLIIDGKKMDLAGTDFKNSKTIEINGKTMVAVACCSNLEYMKFGQLWQKEGETAKDNSLFLQGERTTTDKMPKGGNYKYIGTWDAQVSKENNWVATADDDRKAGYRTEFDVDFGNKNLSGKLFDKNGVNPVFTVDAKINGNGFTGKAKTSDAGFALDSDSSRYDNVKFSDVAVNGGFYGPTAAELGGQFFHKSDNGSVGAIFGAKRQVKK
B2: in the experiment with porcine transferrin, binding was characterised by a dissociation constant (Kd) of 21 nM.

By Kd is commonly meant the concentration at which binding is half-saturated.
